Reference: the RNAGym collection of RNA variant scans (doi:10.1093/molbev/msab373)

B1: Azoarcus group I ribozyme (parent)
chain: GUGCCUUGCGCCGGGAAACCACGCAAGGGAUGGUGUCAAAUUCGGCGAAACCUAAGCGCCCGCCCGGGCGUAUGGCAACGCCGAGCCAAGCUUCGGCGCCUGCGCCGAUGAAGGUGUAGAGACUAGACGGCACCCACCUAAGGCAAACGCUAUGGUGAAGGCAUAGUCCAGGGAGUGGCGAAAGUCACACAAACCGG

Variants of: B1
Experiment: reverse-splicing fitness (ratio to wild type); higher = more active; in vitro selection; Mg2+ level not given
How it was run: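 An in vitro group I ribozyme library with randomized positions was T7-transcribed and gel-purified. In triplicate, 10 pmol RNA in EPPS pH 7.5 was reacted with 50 pmoles of a 30-nt RNA substrate for 1 h at 37 °C across several added MgCl2 levels (1–48 mM), then stopped with EDTA. Products were reverse transcribed from a substrate-complementary primer, PCR-amplified and sequenced (HiSeq 4000). Fitness is a variant's read proportion after selection over that before, normalised to wild type.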

| Variant | reverse-splicing fitness |
| --- | --- |
| A111G A120G A145U C150A C169A U176G | 0.00504 |
| A111G A120U A145G C150U C169G U176A | 0.0113 |
| A111G A120U A145G C150U C169G U176G | 0.00263 |
| A111G A120U A145G C150U C169G U176C | 0.0118 |
| A111G A120G C150U C169G U176A | 0.0529 |
| A111G A120G C150U C169G U176C | 0.0735 |
| A111G A120G C150U C169G U176G | 0.00531 |
| A111G A120U A145G C169A U176C | 0.00372 |
| A111G A120U A145G C169A U176A | 0.00347 |
| A111G A120U A145G C169A U176G | 0.0013 |
| A111G A120U A145G C150U C169A U176C | 0.00357 |
| A111G A120U A145G C150U C169A U176A | 0.00469 |
| A111G A120U A145G C150U C169A U176G | 0.00246 |
| A111G A120U A145U C150A C169A U176G | 0.00207 |
| A111G A120U A145U C150A C169A U176A | 0.00244 |
| A111G A120U A145U C150A C169A U176C | 0.00238 |
| A111G A120G C150G C169G U176G | 0.00386 |
| A111G A120G C150G C169G U176C | 0.00503 |
| A111G A120G C150G C169G U176A | 0.0075 |
| A111G A120U A145C C150G C169U U176C | 0.0023 |
| A111G A120U A145C C150G C169U U176G | 0.00225 |

| Variant | reverse-splicing fitness |
| --- | --- |
| A111G A120U A145C C150G C169U U176A | 0.00272 |
| A111G A120G C150A C169A U176C | 0.0244 |
| A111G A120G C150A C169A U176G | 0.00486 |
| A111G A120G C150A C169A U176A | 0.0205 |
| A111G A120G C150U | 0.156 |
| A111G A120G C150A | 0.0324 |
| A111G A120G C150G | 0.0248 |
| A111G A120G C150G C169U U176A | 0.0138 |
| A111G A120G C150G C169U U176C | 0.0166 |
| A111G A120G C150G C169U U176G | 0.00593 |
| A111G A120G A145U C150G C169G U176G | 0.00457 |
| A111G A120G A145U C150G C169G U176C | 0.00471 |
| A111G A120G A145U C150G C169G U176A | 0.00768 |
| A111G A120U A145G C150A C169U U176C | 0.00673 |
| A111G A120U A145G C150A C169U U176G | 0.00242 |
| A111G A120U A145G C150A C169U U176A | 0.00579 |
| A111G A120G A145U C150G C169A | 0.0193 |
| A111G A120G A145U C150G C169U | 0.0301 |
| A111G A120G A145U C150G C169G | 0.0297 |
| A111G A120G A145U C150G C169A U176G | 0.00435 |
| A111G A120G A145U C150G C169A U176A | 0.0101 |

| Variant | reverse-splicing fitness |
| --- | --- |
| A111G A120G A145U C150G C169A U176C | 0.0123 |
| A111G A120U A145C U176C | 0.214 |
| A111G A120U A145C U176G | 0.131 |
| A111G A120U A145C U176A | 0.332 |
| A111G A120U A145G | 0.667 |
| A111G A120U A145C | 0.701 |
| A111G A120U A145U | 0.759 |
| A111G A120U A145G C150G C169U U176G | 0.00319 |
| A111G A120U A145G C150G C169U U176A | 0.00497 |
| A111G A120U A145G C150G C169U U176C | 0.00697 |
| A111G A120U A145U C150G U176G | 0.00462 |
| A111G A120U A145U C150G U176A | 0.0157 |
| A111G A120U A145U C150G U176C | 0.0298 |
| A111G A120U A145U C150U C169U | 0.0793 |
| A111G A120U A145U C150U C169A | 0.00473 |
| A111G A120U A145U C150U C169G | 0.0547 |
| A111G A120G C150A C169G U176C | 0.0343 |
| A111G A120G C150A C169G U176G | 0.00566 |
| A111G A120G C150A C169G U176A | 0.0259 |
| A111G A120G A145U C150A C169G U176G | 0.00424 |
| A111G A120G A145U C150A C169G U176A | 0.0201 |

| Variant | reverse-splicing fitness |
| --- | --- |
| A111G A120G A145U C150A C169G U176C | 0.0243 |
| A111G A120U A145G C150A C169A | 0.00596 |
| A111G A120U A145G C150A C169G | 0.0141 |
| A111G A120U A145G C150A C169U | 0.0188 |
| A111G A120G C169A U176G | 0.00449 |
| A111G A120G C169A U176A | 0.0455 |
| A111G A120G C169A U176C | 0.0737 |
| A111G A120U A145U C169U U176C | 0.032 |
| A111G A120U A145U C169U U176A | 0.0203 |
| A111G A120G A145U C150U C169A U176A | 0.0314 |
| A111G A120G A145U C150U C169A U176G | 0.00532 |
| A111G A120G A145U C150U C169A U176C | 0.0426 |
| A111G A120G A145U C150A U176A | 0.0179 |
| A111G A120G A145U C150A U176G | 0.00541 |
| A111G A120G A145U C150A U176C | 0.0234 |
| A111G A120U A145C C150G C169G | 0.0104 |
| A111G A120U A145C C150G C169A | 0.00293 |
| A111G A120U A145C C150G C169U | 0.014 |
| A111G A120U A145C C169U | 0.12 |
| A111G A120U A145C C169G | 0.0842 |
| A111G A120U A145C C169A | 0.00532 |
